Experimental data as given in patent US20080306007.
Positions count from the first letter of the chain named.

B1: DynI-PB2-GFP (protein)
chain: MGNRGMEDLIPLVNRLQDAFSAIGQNADLDLPQIAVVGGQSAGKSSVLENFVGRDFLPRGSGIVTRRPLVLQLVNSTTEYAEFLHCKGKKFTDFEEVRLEIEAETDRVTGTNKGISPVPINLRVYSPHVLNLTLVDLPGMTKVPVGDQPPDIEFQIRDMLMQFVTKENCLILAVSPANSDLANSDALKIAKEVDPQGQRTIGVITKLDLMDEGTDARDVLENKLLPLRRGYIGVVNRSQKDIDGKKDITAALAAERKFFLSHPSYRHLADRMGTPYLQKVLNQQLTNHIRDTLPGLRNKLQSQLLSIEKEVDEYKNFRPDDPARKTKALLQMVQQFAVDFEKRIEGSGDQIDTYELSGGARINRIFHERFPFELVKMEFDEKELRREISYAIKNIHGIRTGLFTPDLAFEATVKKQVQKLKEPSIKCVDMVVSELTSTIRKCSEKLQQYPRLREEMERIVTTHIREREGRTKEQVMLLIDIELAYMNTNHEDFIGFANAQQRSNQMNKKKTSGNQDEILVIRKGWLTINNIGIMKGGSKEYWFVLTAENLSWYKDDEEKEKKYMLSVDNLKLRDVEKGFMSSKHIFALFNTEQRNVYKDYRQLELACETQEEVDSWKASFLRAGVYPERVGDKEKASETEENGSDSFMHSMDPQLERQVETIRNLVDSYMAIVNKTVRDLMPKTIMHLMINNTKEFIFSELLANLYSCGDQNTLMEESAEQAQRRDEMLRMYHALKEALSIIGDINTTTVSTPMPPPVDDSWLQVQSVPAGEESPTSSPTPQRRAPAVPPARPGSRGPAPGPPPAGSALGGAPPVPSRPGASPDPFGPPPQVPSRPNRAPPGVPSRSGQASPSRPESPRPPFDL
B2: DynI-3B-GFP (protein)
chain: B1 chain with E772R, E773R, P793A
B3: DynI^dmA-GFP (protein)
chain: B1 chain with E772R, E773R, S774A, S778A
B4: DynI^dmE-GFP (protein)
chain: B1 chain with E772R, E773R, S774E, S778E

Key:
[1] = biological target: syndapin I (native, from rat brain lysate or synaptosomes)
syndapin I (native, from rat brain lysate or synaptosomes), sequence (chain, as listed by the source): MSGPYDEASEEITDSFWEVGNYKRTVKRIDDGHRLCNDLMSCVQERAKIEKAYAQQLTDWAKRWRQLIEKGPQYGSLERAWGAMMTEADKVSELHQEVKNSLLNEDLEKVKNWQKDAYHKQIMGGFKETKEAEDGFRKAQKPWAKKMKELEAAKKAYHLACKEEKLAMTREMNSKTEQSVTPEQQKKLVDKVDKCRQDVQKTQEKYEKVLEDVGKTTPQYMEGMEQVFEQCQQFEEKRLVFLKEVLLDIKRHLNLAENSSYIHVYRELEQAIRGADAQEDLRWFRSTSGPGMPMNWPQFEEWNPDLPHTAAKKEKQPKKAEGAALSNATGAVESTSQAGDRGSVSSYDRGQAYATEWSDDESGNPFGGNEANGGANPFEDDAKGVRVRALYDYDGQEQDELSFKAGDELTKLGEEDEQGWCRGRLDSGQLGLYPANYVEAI

[2] = biological target: T1, endophilin I (native, from rat brain lysate or synaptosomes), O35179
T1 chain: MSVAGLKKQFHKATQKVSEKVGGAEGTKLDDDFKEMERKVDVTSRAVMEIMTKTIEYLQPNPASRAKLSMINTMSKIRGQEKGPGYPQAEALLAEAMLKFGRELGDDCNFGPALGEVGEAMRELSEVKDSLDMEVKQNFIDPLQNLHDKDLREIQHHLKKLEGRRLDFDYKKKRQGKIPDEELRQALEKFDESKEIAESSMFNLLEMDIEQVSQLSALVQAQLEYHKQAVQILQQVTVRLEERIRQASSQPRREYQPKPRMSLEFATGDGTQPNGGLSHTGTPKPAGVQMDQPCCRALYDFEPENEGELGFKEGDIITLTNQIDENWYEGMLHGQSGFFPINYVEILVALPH

Protein | total SV recycling pool (FM4-64) in transfected CGNs [1] | further results
B1 | – | total synaptic recycling pool (FM4-64) in transfected CGNs [1]: 59.5±4.3% of control for DynI-PB2-GFP
B2 | – | total synaptic recycling pool (FM4-64) in transfected CGNs [2]: 56.8±4.4% for DynI-3B-GFP
B3 | 28±3.5% of control | –
B4 | 64.4±6.2% of control | –
